Positions count from the first letter of the chain named. In names and notes the source's numbering stands. Where two headings read alike, the source gives them in different places.
Legend:
[1] = biological target: T1, human IL-18 binding protein (IL-18BP) (human, UniProt O95998 31-194); experiment: Octet BLI
T1 construct: also called hu IL-18BP; hIL18BP
T1 sequence (looked up): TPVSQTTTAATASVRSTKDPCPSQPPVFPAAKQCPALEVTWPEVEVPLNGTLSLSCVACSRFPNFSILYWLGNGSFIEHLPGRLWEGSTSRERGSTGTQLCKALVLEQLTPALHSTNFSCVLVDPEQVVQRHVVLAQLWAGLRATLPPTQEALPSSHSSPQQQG

[2] = biological target: T2, human IL-18R alpha/beta pair (IL-18Rab) (human, UniProt Q13478 19-329; O95256 20-356); experiment: Octet BLI
T2 construct: also called hu IL-18Rab
T2 sequence (looked up) 1: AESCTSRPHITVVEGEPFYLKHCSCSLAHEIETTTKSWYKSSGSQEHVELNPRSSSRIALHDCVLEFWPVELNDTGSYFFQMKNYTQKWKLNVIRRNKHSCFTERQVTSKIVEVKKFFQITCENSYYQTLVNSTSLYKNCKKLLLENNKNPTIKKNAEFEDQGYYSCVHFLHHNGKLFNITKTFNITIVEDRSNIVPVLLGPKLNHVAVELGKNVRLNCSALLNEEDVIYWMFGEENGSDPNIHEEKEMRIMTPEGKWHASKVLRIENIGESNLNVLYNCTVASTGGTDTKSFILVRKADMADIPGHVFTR
T2 sequence (looked up) 2: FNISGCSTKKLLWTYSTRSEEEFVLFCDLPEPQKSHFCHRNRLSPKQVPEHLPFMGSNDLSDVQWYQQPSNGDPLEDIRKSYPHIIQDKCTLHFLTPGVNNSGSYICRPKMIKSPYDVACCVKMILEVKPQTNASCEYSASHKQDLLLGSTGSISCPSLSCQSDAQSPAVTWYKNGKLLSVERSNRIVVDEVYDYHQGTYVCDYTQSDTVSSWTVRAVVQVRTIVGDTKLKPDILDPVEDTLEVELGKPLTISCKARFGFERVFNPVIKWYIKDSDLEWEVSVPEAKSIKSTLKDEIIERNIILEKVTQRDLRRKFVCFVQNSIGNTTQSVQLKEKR

[3] = biological target: T3, human IL-18 receptor alpha (IL-18Rα) (human, UniProt Q13478 19-329, limits assumed); experiment: Octet BLI
T3 construct: also called hu IL-18Ra; IL-18R alpha
T3 sequence (looked up): T2 sequence (looked up) 1

[4] = biological target: T1, human IL-18 binding protein (IL-18BP); experiment: Octet BLI; remark: listed apart in the source
Method: (§1) Octet 96red instrument was used to determine affinities of IL18 proteins to BP or receptors. 5-10 ug/ml analyte proteins were used for loading on Sartorius tips (AHC or SA). […] 120-180 s loading, 200 s association and 800 s dissociation were used for kinetics. 3-7 data points were used to calculate affinities.
Select G3/K53-substitution containing IL-18 variants and select G3/K53/N91-substitution containing TL-18 variants were tested for activity in the HEK-blue activity assay and for binding affinity to IL-18BP. As shown in the data of Table 15 and Table 16 below, each variant had similar or better activity than WT IL-18, and retained substantial activity in the presence of IL-18BP.

[5] = biological target: T4, IL-18 receptor (IL-18Rα and IL-18Rβ) (UniProt Q13478 19-541; O95256 20-599, limits assumed); experiment: cell-based or functional assay
T4 sequence (looked up) 1: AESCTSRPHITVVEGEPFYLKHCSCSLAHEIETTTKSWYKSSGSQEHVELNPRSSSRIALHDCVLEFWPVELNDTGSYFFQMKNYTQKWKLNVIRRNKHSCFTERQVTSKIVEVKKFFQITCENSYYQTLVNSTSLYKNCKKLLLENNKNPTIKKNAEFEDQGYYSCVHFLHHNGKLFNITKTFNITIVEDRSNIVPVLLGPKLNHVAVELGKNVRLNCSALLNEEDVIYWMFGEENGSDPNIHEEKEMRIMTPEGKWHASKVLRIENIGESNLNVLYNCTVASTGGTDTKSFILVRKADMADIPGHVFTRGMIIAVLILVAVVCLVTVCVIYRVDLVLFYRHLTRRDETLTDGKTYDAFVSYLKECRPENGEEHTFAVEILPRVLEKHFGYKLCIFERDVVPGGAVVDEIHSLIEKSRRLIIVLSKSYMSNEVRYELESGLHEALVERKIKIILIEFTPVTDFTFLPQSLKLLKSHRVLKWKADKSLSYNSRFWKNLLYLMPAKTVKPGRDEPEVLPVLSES
T4 sequence (looked up) 2: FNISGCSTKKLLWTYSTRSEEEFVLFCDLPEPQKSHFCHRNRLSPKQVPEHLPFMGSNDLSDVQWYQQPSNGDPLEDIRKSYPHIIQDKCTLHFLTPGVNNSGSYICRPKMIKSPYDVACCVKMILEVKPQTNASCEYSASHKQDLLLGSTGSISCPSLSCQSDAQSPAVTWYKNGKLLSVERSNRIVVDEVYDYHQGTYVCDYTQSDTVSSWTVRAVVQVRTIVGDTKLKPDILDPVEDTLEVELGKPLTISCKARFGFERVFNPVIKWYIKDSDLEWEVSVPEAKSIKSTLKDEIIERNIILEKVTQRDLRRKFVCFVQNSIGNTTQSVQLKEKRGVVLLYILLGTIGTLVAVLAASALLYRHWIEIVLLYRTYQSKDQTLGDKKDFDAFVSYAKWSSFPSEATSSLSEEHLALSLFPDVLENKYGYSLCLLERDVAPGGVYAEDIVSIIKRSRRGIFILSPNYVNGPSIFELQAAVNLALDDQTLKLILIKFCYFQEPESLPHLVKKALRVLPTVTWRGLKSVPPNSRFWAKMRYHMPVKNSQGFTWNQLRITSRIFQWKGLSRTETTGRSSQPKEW

[6] = biological target: T1, human IL-18 binding protein (IL-18BP); experiment: cell-based or functional assay
[7] = biological target: T5, IL-18 receptors on HEK-Blue IL-18 reporter cells (InvivoGen) (UniProt Q13478 19-541; O95256 20-599); experiment: cell-based or functional assay
T5 sequence (looked up) 1: T4 sequence (looked up) 1
T5 sequence (looked up) 2: T4 sequence (looked up) 2

[8] = biological target: T1, human IL-18 binding protein (IL-18BP); experiment: cell-based or functional assay; remark: listed apart in the source
[9] = biological target: T5, IL-18 receptors on HEK-Blue IL-18 …; experiment: cell-based or functional assay; remark: listed apart in the source
[10] = biological target: T1, human IL-18 binding protein (IL-18BP); experiment: Octet BLI; remark: listed apart in the source
Method: as §1

[11] = biological target: T2, human IL-18R alpha/beta pair (IL-18Rab); experiment: Octet BLI; remark: listed apart in the source
Method: as §1

[12] = biological target: T3, human IL-18 receptor alpha (IL-18Rα); experiment: Octet BLI; remark: listed apart in the source
Method: as §1

[13] = biological target: T1, human IL-18 binding protein (IL-18BP); experiment: cell-based or functional assay; remark: listed apart in the source
[14] = biological target: T5, IL-18 receptors on HEK-Blue IL-18 …; experiment: cell-based or functional assay; remark: listed apart in the source
[15] = biological target: T1, human IL-18 binding protein (IL-18BP); experiment: cell-based or functional assay; remark: listed apart in the source
[16] = biological target: T5, IL-18 receptors on HEK-Blue IL-18 …; experiment: cell-based or functional assay; remark: listed apart in the source
[17] = biological target: T1, human IL-18 binding protein (IL-18BP); experiment: cell-based or functional assay; remark: listed apart in the source
[18] = biological target: T4, IL-18 receptor (IL-18Rα and IL-18Rβ); experiment: cell-based or functional assay; remark: listed apart in the source
[19] = biological target: T6, WT mouse IL-18 on monoFc scaffold (mouse; human, UniProt P70380 36-192); experiment: Octet BLI, monoFc scaffold
T6 construct: mature
T6 sequence (P70380 other isoform, or with tags, fused parts or gaps): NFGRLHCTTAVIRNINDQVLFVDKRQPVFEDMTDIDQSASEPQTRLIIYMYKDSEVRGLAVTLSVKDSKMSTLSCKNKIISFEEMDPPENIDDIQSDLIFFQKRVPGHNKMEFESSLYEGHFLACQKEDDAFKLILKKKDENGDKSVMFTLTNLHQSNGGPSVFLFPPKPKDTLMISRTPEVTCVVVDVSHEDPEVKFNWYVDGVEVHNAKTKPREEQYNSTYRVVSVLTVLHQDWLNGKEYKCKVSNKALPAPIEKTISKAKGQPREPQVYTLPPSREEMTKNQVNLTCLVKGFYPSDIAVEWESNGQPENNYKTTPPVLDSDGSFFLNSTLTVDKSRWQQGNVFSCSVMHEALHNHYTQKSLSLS
Method: as §1
Several mouse variants were next tested for binding affinity to mouse IL-18R alpha and mouse IL-18BP.

[20] = biological target: T4, IL-18 receptor (IL-18Rα and IL-18Rβ); experiment: cell-based or functional assay; remark: listed apart in the source
[21] = biological target: T7, interleukin 18 binding protein (IL-18BP) (UniProt O95998 31-194); experiment: cell-based or functional assay
T7 sequence (looked up): T1 sequence (looked up)

B1: IL-18 variant G3E, K53S (ligand)
chain: YFEKLESKLSVIRNLNDQVLFIDQGNRPLFEDMTDSDMRDNAPRTIFIISMYSDSQPRGMAVTISVKSEKISTLSSENKIISFKEMNPPDNIKDTKSDIIFFQRSVPGHDNKMQFESSSYEGYFLASEKERDLFKLILKKEDELGDRSIMFTVQNED
Kd [1]: 396 nM
Kd [2]: 0.31 nM
Kd [3]: 8920 nM
Kd [4]: 396 nM
koff [4]: 0.0311 s⁻¹
kon [4]: 78500 M⁻¹ s⁻¹
EC50 pM, IFN gamma expression in PBMCs [5]: 517 pM
HEK-Blue Activity Assay Ec50 (pM), +50 nM hu IL-18BP [6]: 4.41 pM
HEK-Blue Activity Assay Ec50 (pM), -hu IL-18BP [7]: 2.69 pM
HEK-Blue Ec50 (pM), +IL-18BP (50 nM) [8]: 4.41 pM
HEK-Blue Ec50 (pM), -IL-18BP [9]: 2.69 pM

B2: IL-18 variant G3T, M60K, D157E (ligand)
chain: B1 chain with E3T, S53K, M60K, D157E
Kd [10]: 686 nM
Kd [11]: 0.1 nM
Kd [12]: 693 nM
Kd [1]: 686 nM
Kd [2]: 0.1 nM
Kd [3]: 693 nM
HEK-Blue Activity Assay Ec50 (pM), +300 nM hu IL-18BP [13]: 2.77 pM
HEK-Blue Activity Assay Ec50 (pM), -hu IL-18BP [14]: 0.75 pM
Fold Change (BP/NO BP), 50 nM BP [15]: 1.05 fold
Fold Change (BP/NO BP), 300 nM BP [15]: 3.69 fold
HEK-Blue EC50 pM, +50 nM BP [15]: 0.65 pM
HEK-blue EC50 (pM) + 300 nM BP [15]: 2.77 pM
HEK-Blue EC50 pM, NO BP (50 nM BP run) [16]: 0.62 pM
HEK-Blue EC50 pM, NO BP (300 nM BP run) [16]: 0.75 pM
EC50 pM, IFN gamma expression in PBMCs, + 300 nM BP [17]: 323 pM
EC50 pM, IFN gamma expression in PBMCs, no BP [18]: 127 pM
HEK-Blue Activity Assay Ec50 (pM), +50 nM hu IL-18BP [6]: 0.65 pM
HEK-Blue Activity Assay Ec50 (pM), -hu IL-18BP [7]: 0.62 pM

B3: IL-18 variant G3R, K53S (ligand)
chain: B1 chain with E3R
Kd [1]: 4.03 nM
Kd [2]: 0.09 nM
Kd [3]: 197 nM
Kd [4]: 4 nM
koff [4]: 0.00143 s⁻¹
kon [4]: 356000 M⁻¹ s⁻¹
EC50 pM, IFN gamma expression in PBMCs [5]: 73.8 pM
HEK-Blue Activity Assay Ec50 (pM), +50 nM hu IL-18BP [6]: 1.84 pM
HEK-Blue Activity Assay Ec50 (pM), -hu IL-18BP [7]: 0.31 pM
HEK-Blue Ec50 (pM), +IL-18BP (50 nM) [8]: 1.84 pM
HEK-Blue Ec50 (pM), -IL-18BP [9]: 0.31 pM

B4: IL-18 variant G3V, M60K (ligand)
chain: B1 chain with E3V, S53K, M60K
Kd [10]: 91 nM
Kd [11]: 0.07 nM
Kd [12]: 41 nM
Kd [1]: 91 nM
Kd [2]: 0.07 nM
Kd [3]: 41 nM
HEK-Blue Activity Assay Ec50 (pM), +300 nM hu IL-18BP [13]: 0.59 pM
HEK-Blue Activity Assay Ec50 (pM), -hu IL-18BP [14]: 0.18 pM
Fold Change (BP/NO BP), 50 nM BP [15]: 1.25 fold
Fold Change (BP/NO BP), 300 nM BP [15]: 3.25 fold
HEK-Blue EC50 pM, +50 nM BP [15]: 0.16 pM
HEK-blue EC50 (pM) + 300 nM BP [15]: 0.59 pM
HEK-Blue EC50 pM, NO BP (50 nM BP run) [16]: 0.12 pM
HEK-Blue EC50 pM, NO BP (300 nM BP run) [16]: 0.18 pM
EC50 pM, IFN gamma expression in PBMCs, + 300 nM BP [17]: 14.4 pM
EC50 pM, IFN gamma expression in PBMCs, no BP [18]: 14.9 pM
HEK-Blue Activity Assay Ec50 (pM), +50 nM hu IL-18BP [6]: 0.16 pM
HEK-Blue Activity Assay Ec50 (pM), -hu IL-18BP [7]: 0.12 pM

B5: mouse IL-18 binding protein (other, UniProt Q9Z0M9 29-193, looked up)
chain: TSAPQTTATVLTGSSKDPCSSWSPAVPTKQYPALDVIWPEKEVPLNGTLTLSCTACSRFPYFSILYWLGNGSFIEHLPGRLKEGHTSREHRNTSTWLHRALVLEELSPTLRSTNFSCLFVDPGQVAQYHIILAQLWDGLKTAPSPSQETLSSHSPVSRSAGPGVA
notes: also called Mouse IL18BP; Mouse IL-18BP
Kd [19]: 2.24 nM

B6: mouse IL-18 receptor alpha (receptor, UniProt Q61098 20-326, looked up)
chain: KSCIHRSQIHVVEGEPFYLKPCGISAPVHRNETATMRWFKGSASHEYRELNNRSSPRVTFHDHTLEFWPVEMEDEGTYISQVGNDRRNWTLNVTKRNKHSCFSDKLVTSRDVEVNKSLHITCKNPNYEELIQDTWLYKNCKEISKTPRILKDAEFGDEGYYSCVFSVHHNGTRYNITKTVNITVIEGRSKVTPAILGPKCEKVGVELGKDVELNCSASLNKDDLFYWSIRKEDSSDPNVQEDRKETTTWISEGKLHASKILRFQKITENYLNVLYNCTVANEEAIDTKSFVLVRKEIPDIPGHVFTG
notes: also called Mouse IL18Ra; mouse IL-18R alpha
Kd [19]: 13.3 nM

B7: Comparator 1 (ligand)
chain: YFGKLESKLSVIRNLNDQVLFIDQGNRPLFEDMTDSDCRDNAPRTIFIISKYSDSLARGLAVTISVKCEKISTLSCENKIISFKEMNPPDNIKDTKSDIIFFQRDVPGHSRKMQFESSSYEGYFLACEKERDLFKLILKKEDELGDRSIMFTVQNED
EC50 (pM), PBMC IFN gamma assay [20]: 4.86 pM
EC50 (pM), PBMC IFN gamma assay, + 300 nM BP [21]: 8.78 pM
